According to the DeepSol protein solubility set:

Experiment: soluble on expression in E. coli; label from the status in PepcDB or PDB records

Sequence | soluble on expression in E. coli
MRKGINMTAELLVNVTPSETRVAYIDGGILQEIHIEREARRGIVGNIYKGRVSRVLPGMQAAFVDIGLDKAAFLHASDIMPHTECVAGEEQKQFTVRDISELVRQGQDLMVQVVKDPLGTKGARLTTDITLPSRYLVFMPGASHVGVSQRIESESERERLKKVVAEYCDEQGGFIIRTAAEGVGEAELASDAAYLKRVWTKVMERKKRPQTRYQLYGELALAQRVLRDFADAELDRIRVDSRLTYEALLEFTSEYIPEMTSKLEHYTGRQPIFDLFDVENEIQRALERKVELKSGGYLIIDQTEAMTTVDINTGAFVGHRNLDDTIFNTNIEATQAIARQLRLRNLGGIIIIDFIDMNNEDHRRRVLHSLEQALSKDRVKTSVNGFSALGLVEMTRKRTRESIEHVLCNECPTCHGRGTVKTVETVCYEIMREIVRVHHAYDSDRFLVYASPAVAEALKGEESHSLAEVEIFVGKQVKVQIEPLYNQEQFDVVMM | not soluble
MDKESVDTLFGMGLTAYQAKDYTKAIHALEHLREHDPSYTTLYSYLAKSYEENGEPEKAIAVLRDGLTQDEFNKEMFLEAGKLAVTLRLPEEAEEFYRQAIVLDEEFSEAIMQLNKLLLAKENYEGVIELVEGLGEEVISEPQIFWDVSVAYQETEQYNKAKANYELAYPHFTNNPTFLKEYGLFLREEGEHAKSQEVLRSYLELEPEDTEILSLFDLEHHHHHH | soluble
MGSDKIHHHHHHMSYLTSSRCKLFYEDTAEQNPSLKDKPAILFVNGWAISSRYWRPTIDLLRQDFRCVTYDQSGTGKTSIDGCQPDLTIGGFADEAGALIEHLGLDKSRNLHIVGHSMGGMVATELCLRYRDALLSATILACGIFEETPFTSLGLMFLGGLIDVSMNFRNMFRVEPLRTLFIKRAATGHISKEYSDIIIEDFTTSDKAATNAVGHFSIDPEALRTYTRSVIEIASPVLCCVGMADHTIPPEGTITLFEKRKASATSPTRLVQFMHLGHLPMLEDTPCFVEQLKKHFDFAEHFYKKTQPATPLADRVQIQ | not soluble
MALLEICCYSMECALTAQRNGADRIELCAAPKEGGLTPSFGVLRSVREHITIPVHPIIRPRGGDFYYTDGEFAAMLEDIRLVRELGFPGLVTGVLTVDGDVDMSRMEKIMAAAGPLAVTFHRAFDMCANPFNALKNLADAGVARVLTSGQKADAAQGLSIIMELIAQGDAPTIMAGAGVRANNLQNFLDAGVREVHSSAGVLLPSPMRYRNQGLSMSADIQADEYSRYRVEGAAVAEMKGIIVRHQAKLEHHHHHH | soluble
MGSDKIHHHHHHMQFTDAVTVAGTRRTADGYLVATARAVRTGIQLYAGHEVGKPDQEVVRVYRAADQVFSTESLQSFSHAPITVDHPDEEVSAENWKALSVGEVSTAAKQDGQWVMLPLILKDAAAIKSVMDGKRELSAGYTCDLDFTPGVTADGEPYDAQQRGIRINHLALVDRARAGSKARIGDDGGPWGAAPISTTDKETITMSDALRTVVVDGLSVTTTDQGAQAISKLLKDLESSAAKLVDAQTRYQAALAAKDADLAKAHAERDAANAKVLSDADLDKRVAARADLITKAKAIAKDVKTDGLSDSAIRKAAVTAALGDAAVRDKADAYIDARFDILVEDAAKKSGGADPFRQVVQNGLQTADNTNGAAAAHNAMVRDMSSAWMMKKEA | not soluble
MIQAVFERAEDGELRSAEITGHAESGEYGLDVVCASVSTLAINFINSIEKFAGYEPILELNEDEGGYLMVEIPKDLPSHQREMTQLFFESFFLGMANLSENYSEFVQTRVITEN | soluble
AAGVLKHRRRKEKAQRKLVGMQANLDRLSDLTAELGKQLKPLARQAEAARKAATIQSEVRDARLRIAGYQIHSLASSLKDAQSHHDSIAEKLEEVTEQLEEATGVQLEAEDALGKISPEAEKSQQLWFELSSLAERVSATQRIATDRAKNFSEVRYSGPDPDELAEKAARADAEYAEAEETVDILSERLESIQDNVAELEEQAQRADREHLAQVRAIADRREGIVRLLTLESQQREHIVAAEAELERLREAESDIAAQARSKDAEHKDCQTQAQEARSRIEPLSQSRDAALNESRAADSRLEQLREQQSDIDKSISRLESKIETLESHRMTRNAVKQWEKLQSFYGVDRYIIPQRGMEKAIAAALGPVAEALVGETTTAELQALDIESLARHIVITPGEDHDWRLATDLPHYASWLLDYVELAPEVSSTIVQILADVVLVDSYEHGREVVNHDPRLRAVCVDGTMWGHGWVAVGSAERSAVEIAAEIDQAEKDLEVARLQRVELAGTLNGAHQAADEARVRSAQAQAVCREQEIVVENFSRRVEAVSHEAEARKQELRRHALRVQEAQDRLNQLRQLWEETSDRLSRVEEDNSEEEPSTSERDKAAAALSHMRSMEVEARLSLRTAQDKAEHIRGRGDGLRRQAEYERQARARHDQAVARQRRKAEIASVVAQQCLVVAERVDDALARATQWKENAIAQRGVISARVSAAKDTVSALRTNANRLTEKSHAAELSLGQAQVRLEEAHEKIVEQLGIAISDLMRDYTPHEGFDIGAQRVRLKNAEKDLNALGKVNPLALEEFKALEERYEFLSTQLADVEQARRDLHGVINDVDTKILQ | not soluble
MGSDKIHHHHHHLPALPHIPIPVNFEEYCQQKAAPPGSSTYYALRQAPAASQPLLTALFALRREFEETVKETSDPTIGRTKLAWWQNEIAALASDSPSHPVSKALAAYLPDVKTEYPALQTLLAGFEMDLDQARYLDYPNLRRYVQGVGGTFASLVARATAKDAAQASNWSAPLGEALMLAQFVVETGHDARHGRIYIPIDEMQRFNVTAADLINRKYTEAFTELMRFETKRARDALQSALGAVPGSERRTQRTLVAQAALASALLDEIERDGYHVLHQRIALTPIRKLWIAWRAK | not soluble
MGSDKIHHHHHHMASSIQGQENVMSQSEFDSALPNGIGLAPYLRMKQEGMTENESRIVEWLLKPGNLSCAPAIKDVAEALAVSEAMIVKVSKLLGFSGFRNLRSALEDYFSQSEQVLPSELAFDEAPQDVVNKVFNITLRTIMEGQSIVNVDEIHRAARFFYQARQRDLYGAGGSNAICADVQHKFLRIGVRCQAYPDAHIMMMSASLLQEGDVVLVVTHSGRTSDVKAAVELAKKNGAKIICITHSYHSPIAKLADYIICSPAPETPLLGRNASARILQLTLLDAFFVSVAQLNIEQANINMQKTGAIVDFFSPGALK | not soluble
MAHHHHHHMMSLAIEAVKDFLVKLQDDICEALEAEDGQATFMEDKWTREGGGGGRTRVMVNGAVIEKGGVNFSHVYGKGLPGSSTERHPDMTGCNFQAMGVSLVIHPKNPHVPTSHANVRLFVAEREGKEPVWWFGGGFDLTPYYAVEEDCRYFHQVAQDLCKPFGADVYTRFKVWCDEYFFIPYRNEARGIGGLFFDDLNEWPFEKCFEFVQAVGKGYIDAYIPIVNRRKNTPYTEQQVEFQEFRRGRYAEFNLVIDRGTKFGLQSGGRTESILISLPPRARWGYDWQPEPGTPEARLTEYFLMKRQWV | soluble
GPGSMDSMCTFIIRPPRSTYEIADLGPGVFRIGDDCTERFMRHDFELENMRGLRFQCSWFKPYPARRVPCVVYCHANCGGRYDGLEALFLLQEGFSLFCFDFCGSGMSEGEYISLGFYERQDLVAIVEFLSLKSDEVDGVALWGRSMGAVATIMYASKGSIRGFVVLFAIRPSHPCGCSSTIWWSDMVGERPGFCQRFWCTGLWSASVSAS | not soluble
MGSDKIHHHHHHMVHGVPCFVAHRGYPALYPENSLVGIRAAVQAGARYVEIDIQLSRQLTPYLCHDDNLKRLTGRNAYLTRLKDDEIDTLTVSCPDVTCSSGTEPAPIPRLAEFCRYLAQHPQVTTFVEIKSESIARFGLSKTMDAILPVIDVVHTQCVLISFDWELIALIKSHQMYKTGWIIEHWTDEQSAMAARLQPDYLFSSIRCLPEKLDQLWPGPWQWVIYTVDDYATALGYAEAGITLIETDTISTLLAP | not soluble
MPKTISVRVTTMDAELEFAIQPNTTGKQLFDQVVKTIGLREVWFFGLQYQDTKGFSTWLKLNKKVTAQDVRKESPLLFKFRAKFYPEDVSEELIQDITQRLFFLQVKEGILNDDIYCPPETAVLLASYAVQSKYGDFNKEVHKSGYLAGDKLLPQRVLEQHKLNKDQWEERIQVWHEEHRGMLREDAVLEYLKIAQDLEMYGVNYFSIKNKKGSELWLGVDALGLNIYEQNDRLTPKIGFPWSEIRNISFNDKKFVIKPIDKKAPDFVFYAPRLRINKRILALCMGNHELYMRRRKP | soluble
MHRPEAEKWLRRFERAPDARARLVCLPHAGGSASFFFPLAKALAPAVEVLAVQYPGRQDRRHEPPVDSIGGLTNRLLEVLRPFGDRPLALFGHAMGAIIGYELALRMPEAGLPAPVHLFASGRRAPSRYRDDDVRGASDERLVAELRKLGGSDAAMLADPELLAMVLPAIRSDYRAVETYRHEPGRRVDCPVTVFTGDHDPRVSVGEARAWEEHTTGPADLRVLPGGHFFLVDQAAPMIATMTEKLAGPALTGSTGGNSLEHHHHHH | soluble
MKINRKGGLFLLMFLFLLTGCWDRRELEHVLFINTLGIDFKDNHYIIYPQFINFTNMAKQEGPANRNYSPAYIGKGEGKLLYDAAFDFYKSSQQKVSWEHIKSIVVTERFLKNGNLNQLNDFLSRFFQFRNTMWVFGTKEPLENILATNNIFNISSLYTIMNLPQETIRQSASVDPLRLYTFRSNYYEPGMTTRIPFLATTTEHWKQGHKAFWMLEFNEYGCIAAKSYVNHLNDSDIAGVRWTNKNTNRAPLLLKVKNRAIGELILKKPKIDTKVSIEKGKPHIVMNISLEGDIYQLMKPMPVHKVKKTLRISLKKK | not soluble
MGSDKIHHHHHHMATTVDTGDRRDNGKSVRRKLPRGAHAEIGNVDRDPVELLKISSEGRVRRLVPLRYGRMIESPFAFYRGSAIVQAHDLAGTPNSGLHIQICGDCHLANFGGFATPERALLFDLNDFDETSRGPWEWDLKRLAASFVVAARHLRHKQGVADDLVYQLVRSYQARMQGYGEMGILDTWYDHITFERLLGEETSPNIQRRIRRGMERAADRTSEALLPKLAERVGDKWTILDAPPAVFHVRGAHTLFDADDDWMTAKDIQAAAEKVYKEYLGTLAPDRQRLLSHFTLHDRAFKVVGVGSVGTRCMIQLMIDSHGKPMFLQIKEATRSVVARYFKGPAVSHDGRRVVEGQRLMQAASDLFLGWTKGPFGRDFYVRQLRDMKLSPQIELMDVEALGRYGALCGWVLARAHAKAGGLAAEISGYLGTSDRMAEVMVGYSNSYADQVEKDYERFVAACRSGRLEARTDADMAADFRV | not soluble
SMLSAASRVVSRAAVHCALRSPPPEARALAMSRPPPPRVASVLGTMEMGRRMDAPASAAAVRAFLERGHTELDTAFMYSDGQSETILGGLGLGLGGGDCRVKIATKANPWDGKSLKPDSVRSQLETSLKRLQCPQVDLFYLHAPDHGTPVEETLHACQRLHQEGKFVELGLSNYASWEVAEICTLCKSNGWILPTVYQGMYNATTRQVETELFPCLRHFGLRFYAYNPLAGGLLTGKYKYEDKDGKQPVGRFFGNSWAETYRNRFWKEHHFEAIALVEKALQAAYGASAPSVTSAALRWMYHHSQLQGAHGDAVILGMSSLEQLEQNLAATEEGPLEPAVVDAFNQAWHLVAHECPNYFR | soluble
MGHHHHHHSHMIRINEIKLPLDHEEGALLDAITKKLGIPAEKVISFNVFRRGYDARKKTNIHLIYTLDIIVEGDETALLAKFANDPHVRQTPDMEYKFVAKAPENLTERPIVIGFGPCGLFAGLVLAQMGFNPIIVERGKEVRERTKDTFGFWRKRTLNPESNVQFGEGGAGTFSDGKLYSQVKDPNFYGRKVITEFVEAGAPEEILYVSKPHIGTFKLVTMIEKMRATIIELGGEIRFSTRVDGLHMEDGQITGVTLSNGEEIKSRHVVLAVGHSARDTFEMLHERGVYMEAKPFSVGFRIEHKQSMIDEARFGPNAGHPILGAADYKLVHHCKNGRTVYSFCMCPGGTVVAATSEEGRVVTNGMSQYSRAERNANSAIVVGISPEVDYPGDPLAGIRFQRELESNAYKLGGENYDAPAQKIGDFLKGRDPSQLGDVEPSFTPGIKLTDLSKALPPFAVEAIREAIPAFDRKIKGFASEDGLLTGVETRTSSPVCIKRGKDFQSVNLKGFYPAGEGAGYAGGILSAGIDGIKVAEAVARDIVAAMENA | soluble
